Publication PMC9391379, “Ferritin-mediated iron detoxification promotes hypothermia survival in Caenorhabditis elegans and murine neurons” (Nature Communications, 2022)

Molecular target: the molecule itself
Experiment: native gel or EMSA; recombinant FTN variants (2 µg) resolved on a 4–16% gradient NativePAGE Bis-Tris gel, Coomassie Blue stained; NativeMark standard for the size of complexes; self-assembly into high molecular weight complexes

| Protein | binding result |
| --- | --- |
| C. elegans ferritin FTN-2, recombinant, untagged, wild type (natural protein, UniProt Q9TYS3 1-170, looked up, FTN-2, C. elegans ferritin; ORF amplified from C. elegans cDNA and cloned between NcoI and NotI of pET28a; expressed without a tag; also called FTN-2 wt; source: E. coli BL21-CodonPlus (DE3)-RIPL, purified (heat step, acid precipitation, cation exchange)) MSLARQNYHSEVEAAVNKQINIELYASYVYLSMSFYFDRDDVALPNIAKFFKEQSDEEREHATELMRVQNLRGGRVVLQDIQKPENDEWGTALKAFEAALALEKFNNESLLKLHSTAGNHNDAHLTDFIEEKYLDEQVKSINEFARMVANLKRVGPGVGEYVFDKEHFSD | binds |
| C. elegans ferritin FTN-2 E58K/H61G (FeOx-mut), recombinant, untagged (natural protein, UniProt Q9TYS3 1-170, looked up, FTN-2, C. elegans ferritin; ORF in pET28a with the E58K/H61G double mutation made by site-directed mutagenesis; expressed without a tag; also called FTN-2 FeOx-mut; E58K/H61G-mutated FTN-2; source: E. coli BL21-CodonPlus (DE3)-RIPL, purified (heat step, acid precipitation, cation exchange)) MSLARQNYHSEVEAAVNKQINIELYASYVYLSMSFYFDRDDVALPNIAKFFKEQSDEKREGATELMRVQNLRGGRVVLQDIQKPENDEWGTALKAFEAALALEKFNNESLLKLHSTAGNHNDAHLTDFIEEKYLDEQVKSINEFARMVANLKRVGPGVGEYVFDKEHFSD | binds |
| C. elegans ferritin FTN-1, recombinant, untagged, wild type (natural protein, UniProt O16453 1-170, looked up, FTN-1, C. elegans ferritin; ORF amplified from C. elegans cDNA and cloned between NcoI and NotI of pET28a; expressed without a tag; also called FTN-1 wt; source: E. coli BL21-CodonPlus (DE3)-RIPL, purified (heat step, acid precipitation, cation exchange)) MSLARQNYHDEVEAAVNKQINVELYASYVYLSMSAHFDRDDIALRNIAKFFKEQSDEERGHATELMRIQAVRGGRVAMQNIQKPEKDEWGTVLEAFEAALALERANNASLLKLHGIAEQRNDAHLTNYIQEKYLEEQVHSINEFARYIANIKRAGPGLGEYLFDKEEFSD | binds |
| C. elegans ferritin FTN-1 E58K/H61G (FeOx-mut), recombinant, untagged (natural protein, UniProt O16453 1-170, looked up, FTN-1, C. elegans ferritin; ORF in pET28a with the E58K/H61G double mutation made by site-directed mutagenesis; expressed without a tag; also called FTN-1 FeOx-mut; E58K/H61G-mutated FTN-1; source: E. coli BL21-CodonPlus (DE3)-RIPL, purified (heat step, acid precipitation, cation exchange)) MSLARQNYHDEVEAAVNKQINVELYASYVYLSMSAHFDRDDIALRNIAKFFKEQSDEKRGGATELMRIQAVRGGRVAMQNIQKPEKDEWGTVLEAFEAALALERANNASLLKLHGIAEQRNDAHLTNYIQEKYLEEQVHSINEFARYIANIKRAGPGLGEYLFDKEEFSD | binds |
